In publication PMC8610599:

Key:
Experiment in all cases: BLI
PGDM1400 = settings: parent: est. 0.40; read off a plot
PGT151 = settings: parent: est. 1.6; read off a plot
VRC01 = settings: parent: est. 0.38; read off a plot
PGT121 = settings: parent: est. 0.20; read off a plot

| Substance | response (AUC (2G12 normalized)) (PGDM1400) | response (AUC (2G12 normalized)) (PGT151) | response (AUC (2G12 normalized)) (VRC01) | response (AUC (2G12 normalized)) (PGT121) |
| --- | --- | --- | --- | --- |
| LAI SOSIP.664 trimer Q590A; S164G | 0.2 | 1.4 | 0.7 | 0.17 |
| LAI SOSIP.664 trimer F53V; Q567R | 0.35 | 1.5 | 0.4 | 0.22 |
| LAI SOSIP.664 trimer R585F | 0.35 | 1.5 | 0.4 | 0.15 |
| LAI SOSIP.664 trimer Y586W; Q567R | 0.3 | 1.5 | 0.55 | 0.2 |
| LAI SOSIP.664 trimer Y586W | 0.42 | 1.3 | 0.88 | 0.18 |
| LAI SOSIP.664 trimer S164G | 0.25 | 1.5 | 0.47 | 0.22 |
| LAI SOSIP.664 trimer F53V | 0.33 | 1.5 | 0.45 | 0.18 |
| LAI SOSIP.664 trimer R585F; Q567R | 0.35 | 1.5 | 0.4 | 0.17 |
| LAI SOSIP.664 trimer Q567R | 0.3 | 1.6 | 0.42 | 0.22 |
| LAI SOSIP.664 trimer Q590A | 0.35 | 1.5 | 0.62 | 0.18 |
